Reference: paper doi:10.1101/127183

Tests used:
[1] = biological target: Apoprotein of COCP (Apo-COCP) (Synechocystis); assay: SEC
[2] = biological target: C-terminal OCP-related Carotenoid-binding Protein (COCP), carotenoid-bound holoform (Synechocystis); assay: SEC
[3] = biological target: C-terminal OCP-related Carotenoid-binding Protein (COCP), carotenoid-bound holoform (Synechocystis); assay: cross-linking
[4] = biological target: Synechocystis OCP^WT apoprotein (Apo-OCP) (Synechocystis) (UniProt P74102); assay: cross-linking
UniProt P74102, sequence (P74102 whole entry): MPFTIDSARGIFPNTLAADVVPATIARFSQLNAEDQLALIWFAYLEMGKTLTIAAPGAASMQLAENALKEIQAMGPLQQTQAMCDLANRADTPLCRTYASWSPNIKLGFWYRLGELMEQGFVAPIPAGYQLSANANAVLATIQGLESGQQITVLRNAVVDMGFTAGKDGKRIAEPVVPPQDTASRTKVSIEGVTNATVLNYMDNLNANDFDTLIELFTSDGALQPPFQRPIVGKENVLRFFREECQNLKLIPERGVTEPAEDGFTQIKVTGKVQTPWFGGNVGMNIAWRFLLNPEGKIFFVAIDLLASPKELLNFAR

[5] = biological target: COCP with an Ala substitution of Trp-288 (COCP-W288A), carotenoid-bound holoform (Synechocystis); assay: SEC
[6] = biological target: Synechocystis OCP^WT apoprotein (Apo-OCP) (Synechocystis) (UniProt P74102); assay: SEC-SAXS with right angle light scattering
[7] = biological target: Synechocystis OCP^WT apoprotein (Apo-OCP) (Synechocystis) (UniProt P74102); assay: SEC
[8] = biological target: Synechocystis OCP^WT apoprotein (Apo-OCP) (Synechocystis) (UniProt P74102); assay: SEC; remark: listed apart in the source

Substance: Apoprotein of COCP (Apo-COCP) (domain or fragment)
- stoichiometry N [1]: 2

Substance: C-terminal OCP-related Carotenoid-binding Protein (COCP), carotenoid-bound holoform (domain or fragment)
- stoichiometry N [2]: 2
- stoichiometry N [3]: 2
- stoichiometry N (COCP subunit per Apo-OCP subunit) [4]: 1

Substance: COCP with an Ala substitution of Trp-288 (COCP-W288A), carotenoid-bound holoform (domain or fragment)
- stoichiometry N [5]: 2

Substance: Synechocystis OCP^WT apoprotein (Apo-OCP) (from UniProt P74102 1-317) (natural protein)
- stoichiometry N [6]: 2
- stoichiometry N [7]: 2
- stoichiometry N [8]: 2
